Data: paper PMC2148133

Target: Xklp2 (Xenopus kinesin-like protein 2), endogenous full-length protein (Xenopus (endogenous in Xenopus egg extract)) (UniProt Q91785)
Assay: SEC + other: sucrose gradient centrifugation

stoichiometry N: 2
Substance: Xklp2 (Xenopus kinesin-like protein 2), endogenous full-length protein (from UniProt Q91785 1-1388) (natural protein)
